Data taken from publication PMC5505988.

Target: HLA-A*11:01 heavy chain with β2-microglobulin (human)

SSCS, N-terminal 4-mer of EBV LMP2(340–349) (peptide)
melting temperature (Tm) of the pHLA complex refolded with SSCS + SCPLSK (m9 + m10), thermofluor thermal shift assay: 50.3 °C

SSCSS, N-terminal 5-mer of EBV LMP2(340–349) (peptide)
melting temperature (Tm) of the pHLA complex refolded with SSCSS + SCPLSK (m11 + m10), thermofluor thermal shift assay: 49.7 °C

SSCSSC, EBV LMP2(340–345), N-terminal 6-mer (peptide)
melting temperature (Tm) of the pHLA complex refolded with SSCSSC + SCPLSK (m13 + m10), thermofluor thermal shift assay: 48.7 °C
melting temperature (Tm) of the pHLA complex refolded with SSCSSC + SSCPLSK (m13 + m5), thermofluor thermal shift assay: 49.4 °C
